In patent publication US6034062A, “Bone morphogenetic protein (BMP)-9 compositions and their uses” (Genetics Institute, Inc., priority 1997, dated 2000):

Experiments:
NMuli = experiment: 125I-BMP-9 binding to NMuli liver cell line; settings: iodinated CHO-derived BMP-9
Procedure: (§1) BMP-9 responsiveness in parenchymal liver cells is tested by screening four liver cell lines for their ability to bind iodinated, CHO-derived BMP-9. […] Specific binding of BMP-9 to HepG2 cells is carried out by incubating HepG2 cells grown to confluence in Dulbecco's Modified Eagle's Medium (DME) containing 10% heat-inactivated fetal calf serum (FCS) on gelatinized 6 well plates with 2 ng/ml ^125 I-BMP-9 and increasing concentrations of unlabelled BMP-9 in binding buffer (136.9 mM NaCl, 5.37 mM KCl, 1.26 mM CaCl2, 0.64 mM MgSO4, 0.34 mM Na2 HPO4, 0.44 mM KH2 PO4, 0.49 mM MgCl2, 25 mM HEPES and 0.5% BSA, pH 7.4) for 20 hours at 4° C. to achieve binding equilibrium. This incubation follows a one hour preincubation at 37° C. in binding buffer alone. For crosslinking experiments, the cells were incubated with 500 μM disuccinimidyl suberate for 20 minutes at […] following binding. Cell extracts were analyzed on SDS-PAGE. […] The curvilinear nature of the Scatchard plot indicates negative cooperativity among BMP-9 receptors or that HepG2 cells express at least two populations of BMP-9 receptors with different affinities. Crosslinking analysis on HepG2 cells with ^125 I-BMP-9 yields two binding proteins of apparent molecular weights of 54 and 80 kD. […]

[1] = tested on: NRK-52E kidney epithelial cells; experiment: Cell proliferation, [3H]thymidine incorporation, NRK-52E; assay type: cell-based; settings: subconfluent, 24 h
Procedure: Several cell lines are tested for BMP-9 responsiveness in vitro. Cell proliferation, as indicated by [^3 H]thymidine incorporation, is determined in cell lines derived from kidney and lung. Cell proliferation is determined by measuring [^3 H]thymidine incorporation in subconfluent cells treated for 24 h with or without growth factors. NRK-52E (ATCC CRL 1571), WI-38 (ATCC CCL-75), CCD-11Lu (ATCC CCL-202), CCD-16Lu (ATCC CCL-204), and A-549 (ATCC CCL-185) cell lines are placed at 10^4 cells/well in 96 well plates and assayed for [^3 H]thymidine incorporation as described above. IMCD-3 cells (ATCC #CRL-2123) are cultured in a collagen matrix as described by Barros et al., PNAS USA 92:4412-4416 (1995), and treated with growth factors for 6 days to allow tubule formation.

NCTC1469 = experiment: 125I-BMP-9 binding to NCTC1469 liver cell line; settings: iodinated CHO-derived BMP-9
Procedure: as §1

primary rat hepatocytes = experiment: Primary rat hepatocyte 3H-thymidine incorporation; assay type: cell-based
Procedure: As a first indication of BMP-9 effects on confluent, serum starved HepG2 cells, cell proliferation is examined as determined by ^3 H-thymidine incorporation and cell counting. HepG2 cells are plated at […] in 96 well plates and cultured for 48 hours in DME/0.1% FCS to synchronize the cell cycle are treated for 24 hours with or without BMP-9 in the presence of 0.1% FCS. In ^3 H-thymidine incorporation assays, ^3 H-thymidine was included during the last 4 hours of treatment and cellular DNA was collected with a 96 well plate cell harvester. Proliferation was assayed by quantifying ethanol-precipitable ^3 H-thymidine incorporation by liquid scintillation counting. For cell counting assays, cells were trypsinized and counted with a hemacytometer. […] BMP-9 stimulates ^3 H-thymidine incorporation in HepG2 cells approximately five fold.
To determine if this proliferative effect of BMP-9 was unique to the HepG2 liver tumor cell line, primary rat hepatocytes were tested for effects of BMP-9 on ^3 H-thymidine incorporated as shown in FIG. 4.

HepG2 cells = experiment: HepG2 cell proliferation (3H-thymidine incorporation, cell counting); assay type: cell-based
Procedure: As a first indication of BMP-9 effects on confluent, serum starved HepG2 cells, cell proliferation is examined as determined by ^3 H-thymidine incorporation and cell counting. HepG2 cells are plated at […] in 96 well plates and cultured for 48 hours in DME/0.1% FCS to synchronize the cell cycle are treated for 24 hours with or without BMP-9 in the presence of 0.1% FCS. In ^3 H-thymidine incorporation assays, ^3 H-thymidine was included during the last 4 hours of treatment and cellular DNA was collected with a 96 well plate cell harvester. Proliferation was assayed by quantifying ethanol-precipitable ^3 H-thymidine incorporation by liquid scintillation counting. For cell counting assays, cells were trypsinized and counted with a hemacytometer. Primary rat hepatocytes isolated from male Fischer 344 rats (Charles River, Wilmington, Mass.) by collagenase digestion as previously described [Michalopoulos et al., Cancer Res. 42:4673-4682 (1982)] are plated on collagen-coated plates at subconfluence (5,000-10,000 cells/cm^2) in serum-free media as described in Michalopoulos et al., Cancer Res. 42:4673-4682 (1982) and treated with or without rhBMP-9 for 36 hours. ^3 H-thymidine was included throughout the treatment period and incorporated ^3 H-thymidine was quantified as described by Anscher et al., New England J. Med. 328:1592-1598 (1993). BMP-9 stimulates ^3 H-thymidine incorporation in HepG2 cells approximately five fold.

B1: BMP-9: recombinant human bone morphogenetic protein-9, mature amino acids #1-#110 of SEQ ID NO:9, expressed in CHO cells (protein)
chain: TRECSRSCPRTAPQRQVRAVTRRTRMAHVAAGSTLARRKRSAGAGSHCQKTSLRVNFEDIGWDSWIIAPKEYEAYECKGGCFFPLADDVTPTKHAIVQTLVHLKFPTKVG
modifications: 125I-iodinated as tracer; unlabelled BMP-9 used as the displacing ligand
In the case of B1, the “specific binding of 125I-BMP-9” value (NMuli) is reported as “to some extent”, the “cell proliferation ([3H]thymidine incorporation)” value [1] is reported as “inhibited proliferation” and the “specific binding of 125I-BMP-9” value (NCTC1469) is reported as “highest degree of binding”. For the same molecule, the 3H-thymidine incorporation (primary rat hepatocytes; confluent primary rat hepatocytes) was “confluent primary hepatocytes did not”, the 3H-thymidine incorporation (primary rat hepatocytes; subconfluent primary rat hepatocytes, 36 hours, serum-free) was “stimulated ^3 h-thymidine incorporation in primary hepatocytes, although not as markedly as EGF” and the “ED50, stimulation of 3H-thymidine incorporation” value (HepG2 cells; HepG2 cells, estimated) was 0.01 µg/mL. For the same molecule, the cell counting (HepG2 cells; HepG2 cells, treated 24 hours) was “stimulatory effect” and the “stimulation of 3H-thymidine incorporation” value (HepG2 cells; confluent, serum starved HepG2 cells, treated 24 hours, 0.1% FCS) was “approximately five”.
